Test results taken from article PMC11623273.

Target: Fab fragment of neutralizing antibody HCV1
Sequence (heavy, as listed by the source, chain 1 of 2): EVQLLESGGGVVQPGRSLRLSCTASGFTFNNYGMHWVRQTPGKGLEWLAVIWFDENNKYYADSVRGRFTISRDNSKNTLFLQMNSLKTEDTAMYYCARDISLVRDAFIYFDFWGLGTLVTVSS
Sequence (light, as listed by the source, chain 2 of 2): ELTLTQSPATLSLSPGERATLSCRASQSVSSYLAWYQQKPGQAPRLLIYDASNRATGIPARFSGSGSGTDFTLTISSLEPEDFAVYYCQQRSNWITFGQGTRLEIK

Sequence of soluble HCV E2 ectodomain (sE2) (domain or fragment) (Q99IB8 384-719): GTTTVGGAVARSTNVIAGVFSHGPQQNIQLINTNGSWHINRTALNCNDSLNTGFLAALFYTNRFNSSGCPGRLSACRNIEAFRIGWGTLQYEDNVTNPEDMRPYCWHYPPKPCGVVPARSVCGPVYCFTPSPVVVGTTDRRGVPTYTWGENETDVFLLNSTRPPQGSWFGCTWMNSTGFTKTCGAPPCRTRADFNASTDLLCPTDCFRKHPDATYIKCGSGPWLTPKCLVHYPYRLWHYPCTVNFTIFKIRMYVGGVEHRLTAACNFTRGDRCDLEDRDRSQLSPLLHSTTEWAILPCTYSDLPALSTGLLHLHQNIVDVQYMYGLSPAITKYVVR

- Kd: 294 nM
- koff: 0.00435 s⁻¹
- kon: 14800 M⁻¹ s⁻¹
Substance: soluble HCV E2 ectodomain (sE2) (domain or fragment)
